Results reported in patent US20260015399A1 (Boehringer Ingelheim, published 2026).
*1 amine or outer side, *2 acyl side, *3 side chain or, on linkers, in order; H or OH if unused. Side-chain parts run from the residue outwards. The star is where a group is joined. C18 diacid = O=C(O)CCCCCCCCCCCCCCCCC(=O)*; γGlu = O=C(O)[C@H](CCC(=O)[*:2])N[*:1]; Isovaleryl = CC(C)CC(=O)*; Ahx = NCCCCCC(=O)O

T1: human NPY2 receptor (human, UniProt P49146 1-381)
T1 construct: whole, on cells; also called hNPY2-R; hNPY2R
T1 sequence (looked up): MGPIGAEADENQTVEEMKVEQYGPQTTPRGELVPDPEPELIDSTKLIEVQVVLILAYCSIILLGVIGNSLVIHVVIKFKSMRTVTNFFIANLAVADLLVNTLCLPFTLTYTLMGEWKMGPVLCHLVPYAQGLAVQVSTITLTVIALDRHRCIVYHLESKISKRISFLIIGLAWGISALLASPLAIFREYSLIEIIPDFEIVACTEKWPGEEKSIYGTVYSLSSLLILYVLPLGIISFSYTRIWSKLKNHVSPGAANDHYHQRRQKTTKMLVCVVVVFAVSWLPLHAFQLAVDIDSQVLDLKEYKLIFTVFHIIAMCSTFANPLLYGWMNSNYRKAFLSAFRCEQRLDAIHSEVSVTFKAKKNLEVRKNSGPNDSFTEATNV

B1: Compound 9 (peptide)
peptide: Isovaleryl-APEK([Ahx-γGlu-C18 diacid])PEEQATPEELQRYYVSLRHYYNWLTRQRY-NH2
SMILES: CC(C)CC(=O)N[C@@H](C)C(=O)N1CCC[C@H]1C(=O)N[C@@H](CCC(=O)O)C(=O)N[C@@H](CCCCNC(=O)CCCCCNC(=O)CC[C@H](NC(=O)CCCCCCCCCCCCCCCCC(=O)O)C(=O)O)C(=O)N1CCC[C@H]1C(=O)N[C@@H](CCC(=O)O)C(=O)N[C@@H](CCC(=O)O)C(=O)N[C@@H](CCC(N)=O)C(=O)N[C@@H](C)C(=O)N[C@H](C(=O)N1CCC[C@H]1C(=O)N[C@@H](CCC(=O)O)C(=O)N[C@@H](CCC(=O)O)C(=O)N[C@@H](CC(C)C)C(=O)N[C@@H](CCC(N)=O)C(=O)N[C@@H](CCCNC(=N)N)C(=O)N[C@@H](Cc1ccc(O)cc1)C(=O)N[C@@H](Cc1ccc(O)cc1)C(=O)N[C@H](C(=O)N[C@@H](CO)C(=O)N[C@@H](CC(C)C)C(=O)N[C@@H](CCCNC(=N)N)C(=O)N[C@@H](Cc1c[nH]cn1)C(=O)N[C@@H](Cc1ccc(O)cc1)C(=O)N[C@@H](Cc1ccc(O)cc1)C(=O)N[C@@H](CC(N)=O)C(=O)N[C@@H](Cc1c[nH]c2ccccc12)C(=O)N[C@@H](CC(C)C)C(=O)N[C@H](C(=O)N[C@@H](CCCNC(=N)N)C(=O)N[C@@H](CCC(N)=O)C(=O)N[C@@H](CCCNC(=N)N)C(=O)N[C@@H](Cc1ccc(O)cc1)C(N)=O)[C@@H](C)O)C(C)C)[C@@H](C)O
B2: Compound 13 (peptide)
peptide: Isovaleryl-APEK([Ahx-γGlu-C18 diacid])PEADASPEETQRYYVSLRHYYNWLTRQRY-NH2
SMILES: CC(C)CC(=O)N[C@@H](C)C(=O)N1CCC[C@H]1C(=O)N[C@@H](CCC(=O)O)C(=O)N[C@@H](CCCCNC(=O)CCCCCNC(=O)CC[C@H](NC(=O)CCCCCCCCCCCCCCCCC(=O)O)C(=O)O)C(=O)N1CCC[C@H]1C(=O)N[C@@H](CCC(=O)O)C(=O)N[C@@H](C)C(=O)N[C@@H](CC(=O)O)C(=O)N[C@@H](C)C(=O)N[C@@H](CO)C(=O)N1CCC[C@H]1C(=O)N[C@@H](CCC(=O)O)C(=O)N[C@@H](CCC(=O)O)C(=O)N[C@H](C(=O)N[C@@H](CCC(N)=O)C(=O)N[C@@H](CCCNC(=N)N)C(=O)N[C@@H](Cc1ccc(O)cc1)C(=O)N[C@@H](Cc1ccc(O)cc1)C(=O)N[C@H](C(=O)N[C@@H](CO)C(=O)N[C@@H](CC(C)C)C(=O)N[C@@H](CCCNC(=N)N)C(=O)N[C@@H](Cc1c[nH]cn1)C(=O)N[C@@H](Cc1ccc(O)cc1)C(=O)N[C@@H](Cc1ccc(O)cc1)C(=O)N[C@@H](CC(N)=O)C(=O)N[C@@H](Cc1c[nH]c2ccccc12)C(=O)N[C@@H](CC(C)C)C(=O)N[C@H](C(=O)N[C@@H](CCCNC(=N)N)C(=O)N[C@@H](CCC(N)=O)C(=O)N[C@@H](CCCNC(=N)N)C(=O)N[C@@H](Cc1ccc(O)cc1)C(N)=O)[C@@H](C)O)C(C)C)[C@@H](C)O
B3: Compound 17 (peptide)
peptide: Isovaleryl-APEK([Ahx-γGlu-C18 diacid])PEEDATPEEIQRYYPSLRHYYNWLTRQRY-NH2
SMILES: CC[C@H](C)[C@H](NC(=O)[C@H](CCC(=O)O)NC(=O)[C@H](CCC(=O)O)NC(=O)[C@@H]1CCCN1C(=O)[C@@H](NC(=O)[C@H](C)NC(=O)[C@H](CC(=O)O)NC(=O)[C@H](CCC(=O)O)NC(=O)[C@H](CCC(=O)O)NC(=O)[C@@H]1CCCN1C(=O)[C@H](CCCCNC(=O)CCCCCNC(=O)CC[C@H](NC(=O)CCCCCCCCCCCCCCCCC(=O)O)C(=O)O)NC(=O)[C@H](CCC(=O)O)NC(=O)[C@@H]1CCCN1C(=O)[C@H](C)NC(=O)CC(C)C)[C@@H](C)O)C(=O)N[C@@H](CCC(N)=O)C(=O)N[C@@H](CCCNC(=N)N)C(=O)N[C@@H](Cc1ccc(O)cc1)C(=O)N[C@@H](Cc1ccc(O)cc1)C(=O)N1CCC[C@H]1C(=O)N[C@@H](CO)C(=O)N[C@@H](CC(C)C)C(=O)N[C@@H](CCCNC(=N)N)C(=O)N[C@@H](Cc1c[nH]cn1)C(=O)N[C@@H](Cc1ccc(O)cc1)C(=O)N[C@@H](Cc1ccc(O)cc1)C(=O)N[C@@H](CC(N)=O)C(=O)N[C@@H](Cc1c[nH]c2ccccc12)C(=O)N[C@@H](CC(C)C)C(=O)N[C@H](C(=O)N[C@@H](CCCNC(=N)N)C(=O)N[C@@H](CCC(N)=O)C(=O)N[C@@H](CCCNC(=N)N)C(=O)N[C@@H](Cc1ccc(O)cc1)C(N)=O)[C@@H](C)O
B4: Compound 19 (peptide)
peptide: Isovaleryl-APEK([Ahx-γGlu-C18 diacid])PEEDATEEELQRYYVSLRHYYNWLTRQRY-NH2
SMILES: CC(C)CC(=O)N[C@@H](C)C(=O)N1CCC[C@H]1C(=O)N[C@@H](CCC(=O)O)C(=O)N[C@@H](CCCCNC(=O)CCCCCNC(=O)CC[C@H](NC(=O)CCCCCCCCCCCCCCCCC(=O)O)C(=O)O)C(=O)N1CCC[C@H]1C(=O)N[C@@H](CCC(=O)O)C(=O)N[C@@H](CCC(=O)O)C(=O)N[C@@H](CC(=O)O)C(=O)N[C@@H](C)C(=O)N[C@H](C(=O)N[C@@H](CCC(=O)O)C(=O)N[C@@H](CCC(=O)O)C(=O)N[C@@H](CCC(=O)O)C(=O)N[C@@H](CC(C)C)C(=O)N[C@@H](CCC(N)=O)C(=O)N[C@@H](CCCNC(=N)N)C(=O)N[C@@H](Cc1ccc(O)cc1)C(=O)N[C@@H](Cc1ccc(O)cc1)C(=O)N[C@H](C(=O)N[C@@H](CO)C(=O)N[C@@H](CC(C)C)C(=O)N[C@@H](CCCNC(=N)N)C(=O)N[C@@H](Cc1c[nH]cn1)C(=O)N[C@@H](Cc1ccc(O)cc1)C(=O)N[C@@H](Cc1ccc(O)cc1)C(=O)N[C@@H](CC(N)=O)C(=O)N[C@@H](Cc1c[nH]c2ccccc12)C(=O)N[C@@H](CC(C)C)C(=O)N[C@H](C(=O)N[C@@H](CCCNC(=N)N)C(=O)N[C@@H](CCC(N)=O)C(=O)N[C@@H](CCCNC(=N)N)C(=O)N[C@@H](Cc1ccc(O)cc1)C(N)=O)[C@@H](C)O)C(C)C)[C@@H](C)O
B5: Compound 20 (peptide)
peptide: Isovaleryl-APAK([Ahx-γGlu-C18 diacid])PEEDASPEELQRYQVSLRHYYNWLTRQRY-NH2
SMILES: CC(C)CC(=O)N[C@@H](C)C(=O)N1CCC[C@H]1C(=O)N[C@@H](C)C(=O)N[C@@H](CCCCNC(=O)CCCCCNC(=O)CC[C@H](NC(=O)CCCCCCCCCCCCCCCCC(=O)O)C(=O)O)C(=O)N1CCC[C@H]1C(=O)N[C@@H](CCC(=O)O)C(=O)N[C@@H](CCC(=O)O)C(=O)N[C@@H](CC(=O)O)C(=O)N[C@@H](C)C(=O)N[C@@H](CO)C(=O)N1CCC[C@H]1C(=O)N[C@@H](CCC(=O)O)C(=O)N[C@@H](CCC(=O)O)C(=O)N[C@@H](CC(C)C)C(=O)N[C@@H](CCC(N)=O)C(=O)N[C@@H](CCCNC(=N)N)C(=O)N[C@@H](Cc1ccc(O)cc1)C(=O)N[C@@H](CCC(N)=O)C(=O)N[C@H](C(=O)N[C@@H](CO)C(=O)N[C@@H](CC(C)C)C(=O)N[C@@H](CCCNC(=N)N)C(=O)N[C@@H](Cc1c[nH]cn1)C(=O)N[C@@H](Cc1ccc(O)cc1)C(=O)N[C@@H](Cc1ccc(O)cc1)C(=O)N[C@@H](CC(N)=O)C(=O)N[C@@H](Cc1c[nH]c2ccccc12)C(=O)N[C@@H](CC(C)C)C(=O)N[C@H](C(=O)N[C@@H](CCCNC(=N)N)C(=O)N[C@@H](CCC(N)=O)C(=O)N[C@@H](CCCNC(=N)N)C(=O)N[C@@H](Cc1ccc(O)cc1)C(N)=O)[C@@H](C)O)C(C)C

Target: T1, human NPY2 receptor
Experiment: RLB: displacement of 125I-PYY(1-36) from hNPY2R membranes
Description: The filtration RLB assay was carried out in 96-well plates in a final volume of 100 μl per well. Freeze-dried test peptides were dissolved in 100% dimethyl sulfoxide (DMSO) to stock solutions of 1 mM and serial dilutions were performed in assay buffer (50 mM HEPES, 5 mM MgCl₂, 1 mM CaCl₂), pH 7.4) containing 0.2% ovalbumin. […] Next, 80 μL membranes (HTS066M, ChemiSCREEN™ Human Neuropeptide Y2 Receptor Membrane Preparation, CHEMICON) were added to each well to give a final protein concentration of 0.5 μg/well. The plates were sealed and incubated at room temperature for 2 hours in a plate shaker set at 400 rpm. The incubation was stopped by vacuum filtration onto 0.5% polyethylene amine (PEI) presoaked GF/C filters using a 96-well FilterMate™ harvester (Perkin Elmer) followed by four washes with 300 μl/well ice-cold wash buffer (50 mM HEPES, 500 mM NaCl, pH7.4). Filter plates were then dried for 60 min at room temperature and the bottom of the plates was sealed with backing tape UniFilter-96. Finally, 50 μl/well scintillation counter cocktail (Microscint20, Packard) was added and the radioactivity was counted in the Packard TopCount NXT scintillation counter. IC₅₀ values (the half maximal inhibitory concentration of the agonist) were calculated by nonlinear regression analysis of sigmoidal dose-response curves.

| Binder | Ki [nM] |
| --- | --- |
| B1 | 3.32 |
| B2 | 1.53 |
| B3 | 24.6 |
| B4 | 9.63 |
| B5 | 2.41 |
